Measured values as given in article PMC10044823, “Defensin Interactions in Relation to Monoclonal and Disease-Related Proteinase 3 Antibodies Binding at the Catalytic Site” (Antibodies, 2023).

T1: PR3 peptide 17 (Homo sapiens, UniProt P24158)
T1 construct: By the stated scheme this would be residues 161-180 of mature PR3; source: synthetic peptide (Schäfer-N); not shown: cysteine, N-terminal, kept
T1 chain: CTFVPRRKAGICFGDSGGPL

T2: PR3 peptide 7 (Homo sapiens, UniProt P24158)
T2 construct: By the stated scheme this would be residues 61-80 of mature PR3; source: synthetic peptide (Schäfer-N); not shown: cysteine, N-terminal, kept
T2 chain: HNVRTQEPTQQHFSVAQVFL

T3: PR3 peptide 20 (Homo sapiens, UniProt P24158)
T3 construct: source: synthetic peptide (Schäfer-N); not shown: cysteine, N-terminal, kept
T3 chain: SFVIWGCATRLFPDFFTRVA

T4: PR3 peptide 2 (Homo sapiens, UniProt P24158)
T4 construct: By the stated scheme this would be residues 11-30 of mature PR3; source: synthetic peptide (Schäfer-N); not shown: cysteine, N-terminal, kept
T4 chain: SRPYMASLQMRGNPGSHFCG

T5: PR3 peptide 3 (Homo sapiens, UniProt P24158)
T5 construct: By the stated scheme this would be residues 21-40 of mature PR3; source: synthetic peptide (Schäfer-N); not shown: cysteine, N-terminal, kept
T5 chain: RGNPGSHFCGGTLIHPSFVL

T6: PR3 peptide 16 (Homo sapiens, UniProt P24158)
T6 construct: By the stated scheme this would be residues 151-170 of mature PR3; source: synthetic peptide (Schäfer-N); not shown: cysteine, N-terminal, kept
T6 chain: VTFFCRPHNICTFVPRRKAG

T7: PR3 peptide 1 (Homo sapiens, UniProt P24158)
T7 construct: By the stated scheme (20-mers, overlap 10, from the mature N-terminus) this would be residues 1-20 of mature PR3; Coupled to CovaLink-NH plates by the extra N-terminal cysteine; source: synthetic peptide (Schäfer-N); not shown: cysteine, N-terminal, kept
T7 chain: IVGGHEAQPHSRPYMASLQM


Columns and labels:
human α1-antitrypsin = molecular target: T8, human α1-antitrypsin (human, UniProt P01009 25-418); assay: ELISA + other: SDS-PAGE; α1-AT binding of the PR3 preparations, 'Determined by ELISA and/or SDS-PAGE'; conditions: both partners purified
T8 construct: also called AT; α1-AT; source: bought: Calbiochem, Merck

[1] = molecular target: T9, Proteinase 3 purified in-house from human neutrophil granulocytes (SSI PR3) (human, UniProt P24158, small N-linked glycans on Asn102 and 147; none, one or two alpha-defensins covalently attached to the glycans)
[2] = molecular target: T9, Proteinase 3 purified in-house from …; assay: SPR; Biacore 1000, CM5 chip, SSI PR3 immobilised by amine coupling (1287 RU); MAb (whole IgG) injected at 0.1 and 0.4 µg/mL, 25 °C, HBS-E pH 7.4 (10 mM HEPES, 3 mM EDTA, 150 mM NaCl); Langmuir or drifting baseline fit; 'pseudo-affinity/avidity' constants (apparent); conditions: both partners purified
PR3 peptide 17 = molecular target: T1, PR3 peptide 17; assay: ELISA; synthetic 20-mer PR3 peptides coupled by an N-terminal cysteine to CovaLink-NH plates; MAb in solution; corrected by non-coated wells; conditions: both partners purified
[3] = molecular target: T9, Proteinase 3 purified in-house from …; assay: ELISA; elution assays with buffers of different pH: pH at which the MAb dissociated from PR3; conditions: both partners purified
PR3 peptide 7 = molecular target: T2, PR3 peptide 7; assay: ELISA; synthetic 20-mer PR3 peptides coupled by an N-terminal cysteine to CovaLink-NH plates; MAb in solution; corrected by non-coated wells; conditions: both partners purified
PR3 peptide 20 = molecular target: T3, PR3 peptide 20; assay: as above; conditions: both partners purified
PR3 peptide 2 = molecular target: T4, PR3 peptide 2; assay: as above; conditions: both partners purified
PR3 peptide 3 = molecular target: T5, PR3 peptide 3; assay: as above; conditions: both partners purified
PR3 peptide 16 = molecular target: T6, PR3 peptide 16; assay: as above; conditions: both partners purified
PR3 peptide 1 = molecular target: T7, PR3 peptide 1; assay: as above; conditions: both partners purified

T8 sequence (P01009 25-418): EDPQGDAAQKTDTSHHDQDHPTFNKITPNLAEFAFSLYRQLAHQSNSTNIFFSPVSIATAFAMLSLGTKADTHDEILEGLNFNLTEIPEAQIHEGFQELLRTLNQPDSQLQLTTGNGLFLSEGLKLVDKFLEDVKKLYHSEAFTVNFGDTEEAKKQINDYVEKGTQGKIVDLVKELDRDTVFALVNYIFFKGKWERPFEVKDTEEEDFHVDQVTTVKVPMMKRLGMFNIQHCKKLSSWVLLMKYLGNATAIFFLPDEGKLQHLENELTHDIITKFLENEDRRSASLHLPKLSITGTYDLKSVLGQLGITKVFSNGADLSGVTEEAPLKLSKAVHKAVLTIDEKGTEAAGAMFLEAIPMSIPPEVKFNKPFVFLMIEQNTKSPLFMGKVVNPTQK

binding result (human α1-antitrypsin)	Ka [2]	koff [2]	kon [2]	binding result (PR3 peptide 17)	Elution pH (High) [3]	Elution pH (Low) [3]	Binder	also measured
binds	–	–	–	–	–	–	Proteinase 3 purified in-house from human neutrophil granulocytes (SSI PR3) (enzyme, UniProt P24158 28-248, looked up, small N-linked glycans on Asn102 and 147; none, one or two alpha-defensins covalently attached to the glycans, proteinase 3, human, active mature enzyme purified from neutrophil granulocytes; The preparation carries on average 5-6 associated alpha-defensins per PR3 (mostly non-covalent); proteolytically active; also called PR3 (SSI); native PR3 complex) IVGGHEAQPHSRPYMASLQMRGNPGSHFCGGTLIHPSFVLTAAHCLRDIPQRLVNVVLGAHNVRTQEPTQQHFSVAQVFLNNYDAENKLNDVLLIQLSSPANLSASVATVQLPQQDQPVPHGTQCLAMGWGRVGAHDPPAQVLQELNVTVVTFFCRPHNICTFVPRRKAGICFGDSGGPLICDGIIQGIDSFVIWGCATRLFPDFFTRVALYVDWIRSTLR	–
binds	–	–	–	–	–	–	Proteinase 3 from Wieslab/Eurodiagnostica (Wieslab PR3) (enzyme, human, UniProt P24158 28-248, looked up, small N-linked glycans on Asn102 and 147; none, one or two alpha-defensins covalently attached to the glycans, proteinase 3, human, commercial preparation; The preparation carries on average 5-6 associated alpha-defensins per PR3; proteolytically active; also called PR3 (Wieslab); source: bought: Wieslab/Eurodiagnostica) IVGGHEAQPHSRPYMASLQMRGNPGSHFCGGTLIHPSFVLTAAHCLRDIPQRLVNVVLGAHNVRTQEPTQQHFSVAQVFLNNYDAENKLNDVLLIQLSSPANLSASVATVQLPQQDQPVPHGTQCLAMGWGRVGAHDPPAQVLQELNVTVVTFFCRPHNICTFVPRRKAGICFGDSGGPLICDGIIQGIDSFVIWGCATRLFPDFFTRVALYVDWIRSTLR	–
binds	–	–	–	–	–	–	Proteinase 3 from Arotec (Arotec PR3) (enzyme, human, UniProt P24158 28-248, looked up, small N-linked glycans on Asn102 and 147; none, one or two alpha-defensins covalently attached to the glycans, proteinase 3, human, commercial preparation; On average 1-2 associated defensins per PR3; source: bought: Arotec) IVGGHEAQPHSRPYMASLQMRGNPGSHFCGGTLIHPSFVLTAAHCLRDIPQRLVNVVLGAHNVRTQEPTQQHFSVAQVFLNNYDAENKLNDVLLIQLSSPANLSASVATVQLPQQDQPVPHGTQCLAMGWGRVGAHDPPAQVLQELNVTVVTFFCRPHNICTFVPRRKAGICFGDSGGPLICDGIIQGIDSFVIWGCATRLFPDFFTRVALYVDWIRSTLR	–
–	–	–	–	–	–	–	172-03 (antibody, V domains shown) VH: QVQLQQAGAELVKPGASVKLSCKASGYTFTNYWMHWVKQRPGQGLEWIGEINPTNGGINYNEEFIKKATLTADKSSNTAYMQLSGLTSEDSAVYFCLIEIMTGEGYWGQGTSLTVSS VL: DILMTQSPSSLTVSAGEKVTMSCKSSQNLLVSGNQNNYLAWHQQKPGRSPKMLIIWASTRVSGVPDRFIGSGSGTDFTLTINSVQAEDLAVYYCQQSFSAPLTFGAGTKLELK	binding result [1]: binds
–	5.23e+13 M⁻¹	5.21e-08 s⁻¹	2.72e+06 M⁻¹ s⁻¹	binds	12 pH	4 pH	PR3 MAb HYB 172-01 (antibody, V domains shown, Mouse IgG1,κ (clone 6A6); raised against a Triton X-100 extract of purified neutrophil granulocyte alpha-granules; also called clone 6A6; source: mouse hybridoma, produced in-house) VH: EVQLEQSGGDLVKPGGSLKLSCAASGFTFSTYGMSWVRQTPDKRLEWVATFVSGGSYNYYPDSVKGRFAISRDNAKNALYLQMSSLKSEDTAMYYCVRRGASYDALDYWGQGTSVTVSS VL: SIVMTQTPKFLLVSAGDRITITCKASQSVSNDVAWYQQKPGQSPKLLIYYASNRYTGVPDRFTGSGYGTDFTFTISTVQAEDLAVYFCQQDYSSPFTFGSGTKLEIK	Kd [2]: 0.0191 pM
–	1.81e+11 M⁻¹	6.84e-05 s⁻¹	1.24e+07 M⁻¹ s⁻¹	binds	12 pH	2 pH	PR3 MAb HYB 172-05 (antibody, V domains shown, Mouse IgG2a,κ (clone 4A5); also called clone 4A5; source: mouse hybridoma, produced in-house) VH: EVQLQQSGPDLVKPGASVKISCKASGYSFTGYYLHWVKQSHGKSLEWIGRVNPNNDITTYNQKFKDKAILTVDKSSSTAYMEFRSLTSEDSAVYYCAGGGNALDYWGQGTSVTVSS VL: RIVMTQTPKFLLVSAGDRVTITCKASQSVSNNVGWYQQKTGQSPKLLIYYASNRYTGVPDRFTGSGYGTDFTFTISTVQAEDLAVYFCQQDYNSPYTFGGGTKLEIK	–
–	1.8e+10 M⁻¹	0.000571 s⁻¹	1.03e+07 M⁻¹ s⁻¹	binds	12 pH	2 pH	PR3 MAb HYB 172-04 (antibody, V domains shown, Mouse IgG2a,κ (clone 4A3); also called clone 4A3; source: mouse hybridoma, produced in-house) VH: EVKLEQSGPDLVKPGASVKISCKASGYSFTGYYLHWVKQSHGKSLEWIGRVNPNNDITTYNQKFKDKAILTVDKSSSTAYMEFRSLTSEDSAVYYCAGGGNALDYWGQGTSVTVSS VL: EIVLTQSPAIMSASLGEEITLTCSASSSVSYMHWYQQKSGTSPKLLIYSTSNLASGVPSRFSGSGSGTFYSLTISSVEAEDAADYYCHQWSSYGTFGGGTKLEIK	Kd [2]: 55.5 pM; binding result (PR3 peptide 7): binds; binding result (PR3 peptide 20): binds; binding result (PR3 peptide 2): binds; binding result (PR3 peptide 3): binds; binding result (PR3 peptide 16): binds; binding result (PR3 peptide 1): binds
